Experimental data as given in patent US7576177B2, “Hsp peptides and analogs for modulation of immune responses via antigen presenting cells” (Andromeda Biotech Ltd., priority 2002, dated 2009).

Tests used:
[1] = test system: BALB/c DO.11.10 bone marrow cells cultured for dendritic cells, cocultured with DO.11.10 T cells; assay: Education of mouse dendritic cells and stimulation of T-cells, cytokine content of supernatant; type: cell-based; settings: 0.3 nM Ova peptide
Experimental: Whelan et al. (J. Immunol 164, 6453-6460, 2000) addressed the problem in mice by an experiment in which mouse bone marrow cells were grown for 6 days in culture with GM-CSF to give immature dendritic cells. These dendritic cells were then incubated overnight with LPS (known to drive cells to DC1) or with a nematode antigen. The reason for the choice of nematode antigen was that injection of this antigen in vivo gives rise to a Th2 response in animals. After this so-called “education” of the dendritic cells, they were washed and subsequently incubated with naive T cells in the presence of antigenic stimulus. The experiment was possible because of the use of transgenic mice in which all the T cells respond to the same peptide (OVA323-339) which absolves the system from any question of bias of the T cell response at the level of the T cells. Any bias should be a consequence of the “education” of the dendritic cells. After three days of incubation the cytokine responses produced by the T cells, were measured by ELISA. […] In contrast, nematode antigen incubation gave rise to more IL-4 (Th2) than did controls while the LPS incubation inhibited the IL4 response. Therefore, the nematode antigen was said to drive cells to DC2. A similar method was used for testing the compounds of the present invention: • 1. Bone marrow cells were extracted from the leg bones of DO.11.10 mice transgenic for the TcR. All cells from these mice respond to the OVA peptide ([…]). • 2. Bone marrow cells were plated at 10^6 cells/ml in 100 mm diameter tissue culture petri dishes in Iscove's medium supplemented with 10% FCS, […], 1 mM sodium pyruvate, penicillin/streptomycin (according to manufacturer's recommendations), non-essential amino acids, 50 μM β-mercaptoethanol and 10 ng/ml mGM-CSF. • 3. After 4 days, the medium was carefully removed and replaced with fresh medium • 4. After 6 days, the non-adherent cells were harvested and used as immature dendritic cells • 5. The immature dendritic cells are plated at 1×10^6 cells/ml, 1 ml/well in 24 well plates in the above medium with various reagents added at various concentrations and incubated overnight. This is the stage in which the dendritic cells are “educated” • 6. The next day the cells were harvested and washed 3 times then resuspended at 5×10^4 cells/ml in 1 ml of the above medium but without the addition of GM-CSF to be cocultured with T cells • 7. […] 5×10^5 T cells were cultured with the dendritic cells from step 6 in the presence of various concentrations of the OVA peptide (0, 0.3 nM, 3 nM and 30 nM). • 9. After 3 days PMA (50 ng/ml) and ionomycin (500 ng/ml) were added to further stimulate the cells. • 10. The next day the cell supernatants were collected and assayed for cytokine content (Interferon γ, IL4, IL-10 and IL-12).
The compound was tested for stimulation of DO.11.10 bone marrow cells according to the assay described above (Production and education of mouse dendritic cells and stimulation of T-cells).
BALB/c DO.11.10 bone marrow cells were cultured for dendritic cells and then stimulated with LPS 1 μg/ml, LPS 10 μg/ml, hsp60 3 μg/ml, hsp60 10 μg/ml, p277 5 μg/ml and p277 50 μg/ml. The cells were then transferred to wells with T cells from fresh BALB/c DO.11.10 mice and stimulated with OVA peptide at different concentrations (0, 0.3 nM, 3 nM, 30 nM). Supernatant was collected after 48 hours for assay. 30 μl was taken for IFN, 40 μl for IL4 and IL-10 and 50 μl for IL-12 assays. The results are presented in the following tables, as amount of cytokine (pg/ml), and in FIG. 1.

[2] = test system: peripheral blood mononuclear cells cultured with GM-CSF and IL4 (dendritic cells); assay: Peripheral blood derived dendritic cells: secreted cytokines (IP-10, IL-8) and cell surface antigens (CD83, CD86); type: cell-based, human; settings: overnight
Experimental: The effect of the compositions of the present invention on peripheral blood derived dendritic cells, was tested according to a protocol described by Re, F. and Strominger, J. L. 2001. Toll-like receptor 2 (Tlr2) and Tlr4 differentially activate human dendritic cells. (J Biol Chem 276: 37692-9). According to this method immature dendritic cells derived from human peripheral blood are used. The outcome after incubating the cells with tested molecules is different if the stimulation is through the Toll 4 receptor or the Toll 2 receptor. According to the authors, Toll 2 signaling by stimulation with zymosan is associated with a Th2 kind of response (exemplified by IL-8) and Toll 4 signaling, such as obtained by LPS stimulation (exemplified by IP-10), with a Th1 type of response. The compositions of the present invention were tested using a similar assay system in order to check which stimulation type they induce. […] The increase in CD86 expression after exposure of APCs to Hsps or Hsp derived peptides is important since CD86 (B7.2) is an essential component of the immunological synapse formed between T cells and APC. This synapse consists of CD80 and CD86 on the side of the APC and CD28 and CD40 on the side of the T cell. T cell recognition of peptide on APC without the concurrent expression of CD86 gives rise to anergy instead of a T cell response. Therefore in order to produce a response all components must be present.
The assay was based on the protocol described by Re, F. and Strominger, J. L. 2001. Toll-like receptor 2 (Tlr2) and Tlr4 differentially activate human dendritic cells. (J. Biol Chem 276: 37692-9).
Peripheral blood mononuclear cells were prepared from leucocytes from blood lots obtained from the blood bank. The cells were plated at 10^8 cells/10 ml/Petri dish in RPMI medium including 10% FCS and allowed to adhere at 37° C. for 2 hours. At the end of this time, the non-adherent cells were washed off the plates with PBS and the adherent cells resuspended in fresh medium as before. […]

[3] = test system: peripheral blood monocytes; assay: Peripheral blood monocytes: IP-10 after direct stimulation or preincubation then LPS; type: cell-based, human; settings: peripheral blood monocytes, no preincubation, FIG. 4
Experimental: Peripheral blood mononuclear cells were prepared from leucocytes of blood lots obtained from the blood bank. The cells were plated at a concentration of 4×10^6 cell/ml/well in 24 well tissue culture dishes in medium containing 10% fetal calf serum. The cells were allowed to adhere for 2 hours at 37° C. After this time, non-adherent cells were washed away and the adherent cells incubated in fresh medium containing 10% human AB serum for 6-8 days, changing the medium after 4 days. These culture conditions were reported to give rise to monocytes.
For stimulation the medium was replaced with medium without serum. For preincubation, the cells were exposed overnight to the tested compounds at various concentrations and then LPS was added. The supernatant was collected after a further overnight incubation and tested for various cytokines by ELISA assays.

[4] = dendritic cells educated with 3 μg/ml
[5] = dendritic cells educated with 10 μg/ml

B1: hsp60: heat shock protein 60, mitochondrial chaperone, used as stimulus (protein)
chain: MLRLPTVFRQMRPVSRVLAPHLTRAYAKDVKFGADARALMLQGVDLLADAVAVTMGPKGRTVIIEQGWGSPKVTKDGVTVAKSIDLKDKYKNIGAKLVQDVANNTNEEAGDGTTTATVLARSIAKEGFEKISKGANPVEIRRGVMLAVDAVIAELKKQSKPVTTPEEIAQVATISANGDKEIGNIISDAMKKVGRKGVITVKDGKTLNDELEIIEGMKFDRGYISPYFINTSKGQKCEFQDAYVLLSEKKISSIQSIVPALEIANAHRKPLVIIAEDVDGEALSTLVLNRLKVGLQVVAVKAPGFGDNRKNQLKDMAIATGGAVFGEEGLTLNLEDVQPHDLGKVGEVIVTKDDAMLLKGKGDKAQIEKRIQEIIEQLDVTTSEYEKEKLNERLAKLSDGVAVLKVGGTSDVEVNEKKDRVTDALNATRAAVEEGIVLGGGCALLRCIPALDSLTPANEDQKIGIEIIKRTLKIPAMTIAKNAGVEGSLIVEKIMQSSSEVGYDAMAGDFVNMVEKGIIDPTKVVRTALLDAAGVASLLTTAEVVVTEIPKEEKDPGMGAMGGMGGGMGGGMF
modifications: Homo sapien
notes: heat shock protein 60, mitochondrial chaperone, used as stimulus
- IFN secretion of T cells [1, 4]: 447.78 pg/mL
- IL-4 secretion of T cells [1, 4]: 35.96 pg/mL
- IL-10 secretion of T cells [1, 4]: 34.50 pg/mL
- IL-12 secretion of T cells [1, 4]: 95.00 pg/mL
- IFN secretion of T cells [1, 5]: 480.56 pg/mL
- IL-4 secretion of T cells [1, 5]: 24.29 pg/mL
- IL-10 secretion of T cells [1, 5]: 80.18 pg/mL
- IL-12 secretion of T cells [1, 5]: 126.25 pg/mL
- IP-10 ([2]; stimulus 10 ng/ml): 6 pg/mL
- IP-10 ([2]; stimulus 0.1 μg/ml): 1 pg/mL
- IP-10 ([2]; stimulus 1 μg/ml): 31 pg/mL
- IP-10 after direct stimulation [3]: did not give rise to IP-10
